Results as given in US20260055188A1.

Target: Human-TNFR2-His (manufacturer: SINO, CAT: 10417-H08H) (human) (UniProt P20333)
Assay: flow cytometry, bridging: CHOK1-18.2 cells (human Claudin18.2) + 150 nM isotype control + human TNFR2-His, anti-His FITC detection; irrelevant antibody (blank 13476)

E1 Mean FITC-A: 14400
Substance: Human IgG1 kappa Isotype control (Sino Biological, Cat. No.: HG1K) (antibody)
